Assay results taken from patent US20090155843A1 (ANAPHORE, published 2009).
Positions count from the first letter of the chain named.

B1: TN3-2-B1-c22-11 (designed binder)
chain: ALQTVCLKGTKVHMKCFLAFTQTKTFHEASEDCISRGGTLSTPQTGSENDALYEYLRQSVGNEAEIWLGLNKRWSRYFWVDMTGTRIAYKNWERPEDAQPDPSNWENCAVLSGAANGKWFGKRCRDQLPYICQFGIV
notes: Monomeric tetranectin CTLD clone
B2: TN3-2-B1-c22-7 (designed binder)
chain: B1 chain with E93G, P95K
notes: as for B1
B3: TN3-2-B1-c22-9 (designed binder)
chain: B1 chain with P95N, E96R
notes: as for B1
B4: TN3-2-B1-C1 (designed binder)
chain: B1 chain with R94L, P95L, E96S, S103V
notes: as for B1
B5: TN3-2-B1-C29 (designed binder)
chain: B1 chain with R94G, P95I, D97W, S103T, W105F
notes: as for B1
B6: TN3-2-B1-c22-2 (designed binder)
chain: B1 chain with E93L, R94L, E96Q, D97H, Q99N, D101N
notes: as for B1
B7: TN3-2-B1-C53 (designed binder)
chain: B1 chain with P95L, E96A, S103F
notes: as for B1
B8: TN3-2-B1-c22-16 (designed binder)
chain: B1 chain with E93L, R94L, E96Q, D97H, A98E, D101E
notes: as for B1
B9: TN3-2-B1-C24 (designed binder)
chain: B1 chain with P95T, E96T
notes: as for B1
B10: TN3-2-B1-c7 (designed binder)
chain: B1 chain with R94L, P95A, E96S, S103A
notes: as for B1
B11: TN3-2-B1-c22-10 (designed binder)
chain: B1 chain with E93V, P95Q, E96R
notes: as for B1
B12: TN3-2-B1-c22-6 (designed binder)
chain: B1 chain with E93M, R94L, P95E, E96K
notes: as for B1
B13: TN3-2-B1-C31 (designed binder)
chain: B1 chain with R94H, P95S, E96S
notes: as for B1
B14: TN3-2-B1-C19 (designed binder)
chain: B1 chain with R94L, P95I, E96R, S103A
notes: as for B1
B15: TN3-2-B1-C20 (designed binder)
chain: B1 chain with P95R, E96Q
notes: as for B1
B16: TN3-2-B1-c22-15 (designed binder)
chain: B1 chain with E93Q, R94L, E96Q, D97H, Q99D, D101A
notes: as for B1
B17: TN3-2-B1-c22-8 (designed binder)
chain: B1 chain with E93A, P95T, E96Q
notes: as for B1
B18: TN3-2-B1-C22 (designed binder)
chain: B1 chain with R94L, E96Q, D97H
notes: Monomeric tetranectin CTLD clone; also called monomeric form of TN2B1C22
B19: TN3-2-B1-c22-4 (designed binder)
chain: B1 chain with E93A, R94L, E96Q, D97H, Q99S, D101S
notes: as for B1
B20: TN3-2-B1-C22-7 (designed binder)
chain: B1 chain with E93G, P95K
notes: Monomeric tetranectin CTLD clone; also called TN3-B1-C22-7; monomeric form of TN2B1C22-7
B21: TN3-2-B1-c22-13 (designed binder)
chain: B1 chain with P95L, E96R, A98S
notes: as for B1
B22: TN3-2-B1-c22-3 (designed binder)
chain: B1 chain with E93K, R94L, E96Q, D97H, Q99H, D101E
notes: as for B1
B23: TN3-2-B1-c22-12 (designed binder)
chain: B1 chain with E93S, P95Q
notes: as for B1
B24: TN3-2-B1-c22-1 (designed binder)
chain: B1 chain with E93K, R94L, E96Q, D97H, Q99N, D101S
notes: as for B1

Molecular target: T1, human tumor necrosis factor (TNF) (human, UniProt P01375 77-233)
T1 construct: The assays use 'human TNF'; The target of the phage display selection is printed only as 'TNF'; also called TNF-alpha
Test: phage display selection and maturation

T1 sequence (P01375 77-233 limits assumed): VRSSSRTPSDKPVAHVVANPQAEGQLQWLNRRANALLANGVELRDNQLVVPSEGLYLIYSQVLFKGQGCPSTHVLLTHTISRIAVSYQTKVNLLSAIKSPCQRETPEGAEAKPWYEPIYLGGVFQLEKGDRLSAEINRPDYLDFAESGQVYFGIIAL

Row | Binder | binding result
1 | B1 | binds
2 | B2 | binds
3 | B3 | binds
4 | B4 | binds
5 | B5 | binds
6 | B6 | binds
7 | B7 | binds
8 | B8 | binds
9 | B9 | binds
10 | B10 | binds
11 | B11 | binds
12 | B12 | binds
13 | B13 | binds
14 | B14 | binds
15 | B15 | binds
16 | B16 | binds
17 | B17 | binds
18 | B18 | binds
19 | B19 | binds
20 | B20 | binds
21 | B21 | binds
22 | B22 | binds
23 | B23 | binds
24 | B24 | binds
